Assay results as given in US20240010735A1 (EISAI R AND D MANAGEMENT, published 2024).

Experiments:
Assay in all cases: ELISA: SEAP-His proteins (1 nM) captured on anti-6-His antibody, antibody B 10 µg/mL with human IgG 100 µg/mL, HRP anti-human IgG, OD450 as % of human EphA4-SEAP-His
[1] = molecular target: T1, human EphB2 extracellular region-SEAP-His protein (human, UniProt P29323 19-543)
T1 construct: extracellular domain; also called Eph receptor extracellular region-SEAP-His protein; not shown: secretory alkaline phosphatase (SEAP); histidine tag
T1 sequence (looked up): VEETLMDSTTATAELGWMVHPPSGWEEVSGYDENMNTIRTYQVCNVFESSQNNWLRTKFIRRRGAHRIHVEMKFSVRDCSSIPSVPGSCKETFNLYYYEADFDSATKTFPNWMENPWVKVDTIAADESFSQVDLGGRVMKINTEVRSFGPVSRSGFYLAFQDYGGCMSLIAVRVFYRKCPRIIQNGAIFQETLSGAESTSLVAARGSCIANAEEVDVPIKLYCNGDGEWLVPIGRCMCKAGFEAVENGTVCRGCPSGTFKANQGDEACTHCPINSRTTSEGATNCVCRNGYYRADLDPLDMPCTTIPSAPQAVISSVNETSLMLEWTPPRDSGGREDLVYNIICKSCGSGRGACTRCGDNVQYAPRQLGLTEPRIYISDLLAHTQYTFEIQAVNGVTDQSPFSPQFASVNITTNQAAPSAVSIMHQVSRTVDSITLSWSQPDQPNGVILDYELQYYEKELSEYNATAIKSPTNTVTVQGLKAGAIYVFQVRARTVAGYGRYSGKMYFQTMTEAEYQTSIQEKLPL

[2] = molecular target: T2, human EphA8 extracellular region-SEAP-His protein (human, UniProt P29322 28-542)
T2 construct: extracellular domain; also called Eph receptor extracellular region-SEAP-His protein; not shown: secretory alkaline phosphatase (SEAP); histidine tag
T2 sequence (looked up): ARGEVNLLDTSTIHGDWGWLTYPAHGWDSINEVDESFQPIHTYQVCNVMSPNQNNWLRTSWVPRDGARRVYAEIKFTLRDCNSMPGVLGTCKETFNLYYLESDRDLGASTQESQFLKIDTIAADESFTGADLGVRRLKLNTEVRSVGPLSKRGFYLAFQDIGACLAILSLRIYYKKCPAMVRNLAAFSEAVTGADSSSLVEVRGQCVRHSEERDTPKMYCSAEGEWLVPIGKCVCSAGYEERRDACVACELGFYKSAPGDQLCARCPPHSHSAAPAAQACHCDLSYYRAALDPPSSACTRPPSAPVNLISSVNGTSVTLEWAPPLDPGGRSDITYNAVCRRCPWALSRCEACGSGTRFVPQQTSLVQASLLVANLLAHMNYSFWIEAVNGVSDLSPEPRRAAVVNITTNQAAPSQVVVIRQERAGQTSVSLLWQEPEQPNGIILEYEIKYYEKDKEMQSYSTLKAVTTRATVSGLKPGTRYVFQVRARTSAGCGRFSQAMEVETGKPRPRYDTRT

[3] = molecular target: T3, human EphB4 extracellular region-SEAP-His protein (human, UniProt P54760 16-539)
T3 construct: extracellular domain; also called Eph receptor extracellular region-SEAP-His protein; not shown: secretory alkaline phosphatase (SEAP); histidine tag
T3 sequence (looked up): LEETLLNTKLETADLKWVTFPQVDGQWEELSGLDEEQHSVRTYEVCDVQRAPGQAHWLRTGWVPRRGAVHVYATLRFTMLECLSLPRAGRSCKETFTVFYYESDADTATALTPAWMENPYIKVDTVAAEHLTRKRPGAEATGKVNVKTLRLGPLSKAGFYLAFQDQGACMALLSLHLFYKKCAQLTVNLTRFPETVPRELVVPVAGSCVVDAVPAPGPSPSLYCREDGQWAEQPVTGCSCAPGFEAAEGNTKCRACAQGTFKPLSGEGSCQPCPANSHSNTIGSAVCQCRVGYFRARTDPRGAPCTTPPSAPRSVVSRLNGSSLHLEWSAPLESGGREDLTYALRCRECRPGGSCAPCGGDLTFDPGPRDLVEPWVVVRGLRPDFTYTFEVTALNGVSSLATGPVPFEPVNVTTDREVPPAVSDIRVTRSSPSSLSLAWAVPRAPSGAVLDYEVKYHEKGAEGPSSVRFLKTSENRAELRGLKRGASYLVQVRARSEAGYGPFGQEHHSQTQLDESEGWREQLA

[4] = molecular target: T4, human EphB3 extracellular region-SEAP-His protein (human, UniProt P54753 34-559)
T4 construct: extracellular domain; also called Eph receptor extracellular region-SEAP-His protein; not shown: secretory alkaline phosphatase (SEAP); histidine tag
T4 sequence (looked up): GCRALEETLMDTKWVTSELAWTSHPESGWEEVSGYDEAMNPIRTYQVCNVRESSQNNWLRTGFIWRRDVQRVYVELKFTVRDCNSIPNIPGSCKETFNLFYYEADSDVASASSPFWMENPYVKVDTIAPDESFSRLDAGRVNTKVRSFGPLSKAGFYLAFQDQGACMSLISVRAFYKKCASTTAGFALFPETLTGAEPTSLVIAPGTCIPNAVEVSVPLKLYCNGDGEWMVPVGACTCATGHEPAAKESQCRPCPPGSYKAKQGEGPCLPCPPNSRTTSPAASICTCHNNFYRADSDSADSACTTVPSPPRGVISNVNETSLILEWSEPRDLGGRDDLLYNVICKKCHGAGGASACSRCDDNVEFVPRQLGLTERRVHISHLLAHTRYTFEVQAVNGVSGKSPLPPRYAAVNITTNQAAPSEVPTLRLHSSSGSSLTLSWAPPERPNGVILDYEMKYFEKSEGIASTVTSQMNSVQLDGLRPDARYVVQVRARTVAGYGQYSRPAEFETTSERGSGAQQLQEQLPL

Measured: binding result

B1: humanized anti-EphA4 monoclonal antibody (antibody B) (antibody, human IgG2, V domains shown)
VH: QVQLVESGGGVVQPGRSLRLSCAVSGFSLTRFGVHWVRQAPGKGLEWVAVIWRGGSTDYNAAFMSRLTISKDNSKNTVYLQMNSLRAEDTAVYYCAKESLFGVYYDYGYYSMDYWGQGTTVTVSS
VL: DIQMTQSPSSLSASVGDRVTITCRASQEISGYLSWLQQKPGKAPKRLIYAASTLDSGVPSRFSGSRSGTEYTLTISSLQPEDFATYYCLQYASYPLTFGGGTKVEIKR
notes: expressed in Expi293F cells; also called humanized antibody of antibody A; HK2-42 / L1-8
no binding (tested: 10 µg/mL): all assays above
